What all share (experiment): SPR, ligand directly immobilised, soluble Fcγ receptor as analyte, pH 7.3
For orientation: In SPR one partner is held on a chip, and binding of the other changes the refractive index at the surface.

Experiment [1] addresses human FcγRIIB (CD32B) (human) (UniProt P31994).
Experiment [2] deals with human FcγRI (CD64) (human) (UniProt P12314).
Experiment [3] concerns the target human FcγRIIIA (CD16a) (human) (UniProt P08637).

The term Kd denotes the equilibrium constant for the complex coming apart. A high value points to weaker binding.

Sequence of human FcγRI (CD64) (human) (P12314 16-292): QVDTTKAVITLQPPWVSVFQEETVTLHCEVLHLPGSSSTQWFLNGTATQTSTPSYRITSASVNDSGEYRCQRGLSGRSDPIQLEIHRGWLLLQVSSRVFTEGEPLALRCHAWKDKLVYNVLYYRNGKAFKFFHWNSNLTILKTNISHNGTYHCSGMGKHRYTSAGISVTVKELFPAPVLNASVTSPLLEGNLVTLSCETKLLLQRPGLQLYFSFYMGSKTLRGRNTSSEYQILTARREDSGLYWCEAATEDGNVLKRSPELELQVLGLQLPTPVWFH
Sequence of human FcγRIIB (CD32B) (human) (P31994 43-217): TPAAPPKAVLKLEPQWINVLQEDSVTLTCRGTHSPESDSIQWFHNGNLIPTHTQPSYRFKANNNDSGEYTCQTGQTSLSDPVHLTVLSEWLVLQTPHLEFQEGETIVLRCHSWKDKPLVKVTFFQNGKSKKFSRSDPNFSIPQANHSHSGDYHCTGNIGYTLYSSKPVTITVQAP
Sequence of human FcγRIIIA (CD16a) (human) (P08637 17-208): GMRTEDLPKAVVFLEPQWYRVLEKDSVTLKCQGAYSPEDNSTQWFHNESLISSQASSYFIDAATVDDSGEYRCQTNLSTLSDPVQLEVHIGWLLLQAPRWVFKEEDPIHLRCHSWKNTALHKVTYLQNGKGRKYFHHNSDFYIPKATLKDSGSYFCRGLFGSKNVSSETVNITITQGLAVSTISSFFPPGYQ

For huIgG1 (antibody), the Kd is 5.8 µM in experiment [1], 0.000345 µM in experiment [2] and 4.5 µM in experiment [3].
